From article PMC10070764, “S100B chaperone multimers suppress the formation of oligomers during Aβ42 aggregation” (Frontiers in Neuroscience, 2023)
One block for each binder: values may come before it.

Tests used:
[1] = molecular target: the molecule itself; test: SEC + other: electrophoresis; oligomeric state validation of the purified S100B dimer and tetramer preparations, as described (Figueira et al., 2022); conditions not given
[2] = molecular target: amyloid-β 1–42 (Aβ42) peptide (UniProt P05067 672-713); test: cell-based or functional assay
Chain of amyloid-β 1–42 (Aβ42) peptide (P05067 672-713): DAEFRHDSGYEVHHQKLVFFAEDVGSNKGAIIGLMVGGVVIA

- ThT-subtracted X-34 kinetic traces of Aβ42 (2 μM) aggregation: X-34 positive AβO relative to Aβ42 alone, apo-S100B tetramer:Aβ42 ratios up to 0.5 (effect already at 0.25) [2]: 25%
B1: tetrameric S100B (natural protein, human, UniProt P04271 1-92, looked up)
chain: MSELEKAMVALIDVFHQYSGREGDKHKLKKSELKELINNELSHFLEEIKEQEVVDKVMETLDNDGDGECDFQEFMAFVAMVTTACHEFFEHE
notes: Same chain as m1, isolated as the tetramer; used in the aggregation assays in the Ca^2+-free (apo) state (1.1 mM EDTA); also called apo-S100B tetramer; tetrameric apo-S100B; source: E. coli BL21 (DE3) E. Cline Express, purified to homogeneity
- stoichiometry N [1]: 4

B2: dimeric S100B (natural protein, human, UniProt P04271 1-92, looked up)
chain: B1 chain
notes: also called S100B-Ca^2+ dimer; dimeric S100B-Ca^2+; source: E. coli BL21 (DE3) E. Cline Express, purified to homogeneity
- stoichiometry N [1]: 2
